Reference: US20240270857A1 (CHIA TAI TIANQING PHARMACEUTICAL GROUP, published 2024)

Key:
[1] = target: T1, human IL-36R overexpressed on 293T-hIL36R-NFκB cells (human, UniProt Q9HB29 20-575); test: cell-based or functional assay
T1 sequence: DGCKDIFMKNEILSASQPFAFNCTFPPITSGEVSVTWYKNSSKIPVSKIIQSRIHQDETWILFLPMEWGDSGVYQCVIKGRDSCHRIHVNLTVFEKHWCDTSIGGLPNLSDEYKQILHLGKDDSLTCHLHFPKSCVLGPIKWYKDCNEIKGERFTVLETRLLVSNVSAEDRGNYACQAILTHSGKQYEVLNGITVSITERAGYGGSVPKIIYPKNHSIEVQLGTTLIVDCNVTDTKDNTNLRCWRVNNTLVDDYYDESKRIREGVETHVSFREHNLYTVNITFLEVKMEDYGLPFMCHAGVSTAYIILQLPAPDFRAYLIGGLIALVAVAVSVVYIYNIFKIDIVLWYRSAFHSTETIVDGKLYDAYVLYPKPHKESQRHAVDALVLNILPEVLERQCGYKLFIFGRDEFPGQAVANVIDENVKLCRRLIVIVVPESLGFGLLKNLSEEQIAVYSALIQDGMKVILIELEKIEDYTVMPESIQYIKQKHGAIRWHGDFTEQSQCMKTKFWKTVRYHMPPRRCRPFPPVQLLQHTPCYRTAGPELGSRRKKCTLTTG

[2] = target: T1, human IL-36R overexpressed on …; test: cell-based or functional assay; remark: listed apart in the source
[3] = target: T1, human IL-36R overexpressed on …; test: cell-based or functional assay; remark: listed apart in the source
[4] = target: T2, IL-36R naturally expressed on OVCAR8 cells and on normal human epidermal keratinocytes (NHK cells) (human, UniProt Q9HB29 20-575); test: cell-based or functional assay
T2 sequence (looked up): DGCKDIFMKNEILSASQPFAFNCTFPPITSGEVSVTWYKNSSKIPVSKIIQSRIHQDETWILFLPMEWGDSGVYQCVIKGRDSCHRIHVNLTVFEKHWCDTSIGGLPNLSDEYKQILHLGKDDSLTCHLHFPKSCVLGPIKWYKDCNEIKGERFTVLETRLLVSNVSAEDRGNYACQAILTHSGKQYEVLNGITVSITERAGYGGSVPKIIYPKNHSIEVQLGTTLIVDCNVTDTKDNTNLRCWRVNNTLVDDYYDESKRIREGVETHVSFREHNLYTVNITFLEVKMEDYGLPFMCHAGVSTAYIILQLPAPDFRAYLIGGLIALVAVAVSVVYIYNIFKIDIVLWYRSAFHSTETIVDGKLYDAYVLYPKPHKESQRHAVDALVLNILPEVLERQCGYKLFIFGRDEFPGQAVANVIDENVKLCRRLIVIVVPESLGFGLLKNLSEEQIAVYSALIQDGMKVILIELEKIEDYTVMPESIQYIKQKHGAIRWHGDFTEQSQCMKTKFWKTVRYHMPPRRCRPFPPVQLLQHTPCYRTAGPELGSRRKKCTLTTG

[5] = target: T2, IL-36R naturally expressed on OVCAR8 …; test: cell-based or functional assay; remark: listed apart in the source
[6] = target: T2, IL-36R naturally expressed on OVCAR8 …; test: cell-based or functional assay; remark: listed apart in the source
[7] = target: T3, Human IL-1Rrp2/IL-1R6 protein, His Tag (ACROBiosystems, IL2-H52H6) (human, UniProt Q9HB29 20-335); test: BLI (ForteBio Octet), antibody on ProA sensor, 1:1 model
T3 construct: Bought protein; the soluble protein is likely only the extracellular part; also called hIL-36R; human IL36R antigen; not shown: His tag
T3 sequence: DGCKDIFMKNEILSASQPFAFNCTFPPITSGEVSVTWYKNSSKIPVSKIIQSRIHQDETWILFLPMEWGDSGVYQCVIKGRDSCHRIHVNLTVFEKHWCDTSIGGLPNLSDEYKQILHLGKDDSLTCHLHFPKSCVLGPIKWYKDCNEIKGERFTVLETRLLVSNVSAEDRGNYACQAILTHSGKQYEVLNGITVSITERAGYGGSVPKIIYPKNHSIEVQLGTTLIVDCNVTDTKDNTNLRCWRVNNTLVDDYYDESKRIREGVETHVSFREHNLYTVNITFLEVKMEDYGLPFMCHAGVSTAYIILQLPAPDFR
Description: The affinity of anti-IL-36R antibodies to CynoIL36R-ECD mFc and human IL-1Rrp2/IL-IR6 protein, His Tag (ACROBiosystems, IL2-H52H6) was measured by a ForteBio molecular interaction instrument. […] And then the biosensor was used to bind CynoIL36R-ECD mFc or human IL-1Rrp2/IL-1R6 protein, His Tag which was diluted by a gradient (the initial concentration was 200 nM, 2-fold gradient dilution), the response signals were detected in real time using a Fortebio molecular interaction instrument (SARTORIUS, octet red 96e), and association and dissociation curves were obtained. After the completion of dissociation in each cycle, the biosensor was regenerated for the next capture; the procedure was repeated until the affinity of the different anti-IL-36R antibodies for IL-36R was determined. The resulting data were analyzed by Fortebio Data Analysis 11.0 software in a 1:1 (Langmuir) binding model to determine kₐ (kₒₙ) and kd (koff) values, and the dissociation constant KD was calculated by KD=kd/kₐ. The detection method essentially followed the manufacturer's recommendations, and more information could be found at www.fortebio.com.

[8] = target: T1, human IL-36R overexpressed on …; test: FACS on 293T-hIL36R-NFκB cells, ratio of MFI to background MFI
Description: After the cells was washed with PBS, the cells were resuspended with 100 μL of PBS and then the fluorescence signal was detected using a flow cytometer (BD, Accuri C6). […] The ratio was the ratio of mean fluorescence intensity (MFI) of the experimental group/the background MFI, and the resulting data were analyzed using GraphPad Prism.

B1: chimeric 74B4D6 antibody (antibody, human IgG4 S228P, kappa, V domains shown)
VH: EVQLQQPGAELGKPGASVKMACKASGYTFTNYWIHWVKQRPGQGLEWIGTIDPSENYTNYNQKFKGKATLTVDTSSSTAYMQLSSLTSEDKAVYFCTGSSFSYWGQGTLVTVSA
VL: QNVLTQSPAIMSVSPGEKVTMTCSASSSVSFIHWFQQKPGTSPKLWIYTTSNLASGVPARFSGSGSGTSYSLTISRMEAEDAATYYCQQRSSYPLTFGAGTKLELKR
notes: Mouse variable regions on human IgG4 / kappa; also called xi74B4D6
In the case of B1, the “IC50; NFκB-luciferase reporter in 293T-hIL36R-NFκB cells stimulated with hIL36α, inhibition rate %” value [1] is reported as 12.9 nM, the “IC50; NFκB-luciferase reporter in 293T-hIL36R-NFκB cells stimulated with hIL36β, inhibition rate %” value [2] is reported as 21.5 nM and the “IC50; NFκB-luciferase reporter in 293T-hIL36R-NFκB cells stimulated with hIL36γ, inhibition rate %” value [3] is reported as 25.4 nM. For the same binder, the “IC50; IL-8 production of OVCAR8 cells stimulated with hIL36α, inhibition rate %” value [4] was 0.73 nM, the “IC50; IL-8 production of OVCAR8 cells stimulated with hIL36β, inhibition rate %” value [5] was 0.972 nM and the “IC50; IL-8 production of OVCAR8 cells stimulated with hIL36γ, inhibition rate %” value [6] was 1.05 nM. For the same binder, the Kd [7] was 4.72 nM, the koff [7] was 0.000332 s⁻¹ and the kon [7] was 70400 M⁻¹ s⁻¹. The EC50 [8] was 15.5 nM.
